*1 amine or outer side, *2 acyl side, *3 side chain or, on linkers, in order; H or OH if unused. Bridges are numbered along the chain shown (N, C = ends). Where no end group is shown, it is not given here. [ ]: non-standard residue; d: D form. The star is where a group is joined. Trp(7-Me) = Cc1cccc2c(C[C@H](N)C(=O)O)c[nH]c12; 2Nal = N[C@@H](Cc1ccc2ccccc2c1)C(=O)O; AEF = NCCOc1ccc(C[C@H](N)C(=O)O)cc1; αMeF = C[C@](N)(Cc1ccccc1)C(=O)O; NMeβAla = CN(CCC(=O)[*:2])[*:1]; Pen = CC(C)(S)[C@H](N)C(=O)O; αMeK = C[C@](N)(CCCCN)C(=O)O; 3Quin = not defined here; Ac5c = NC1(C(=O)O)CCCC1; Thp = NC1(C(=O)O)CCOCC1; Piv = CC(C)(C)C(=O)*; Propionyl = CCC(=O)*; Tfa = O=C(C(F)(F)F)*
T1: human IL-23R (interleukin-23 receptor) (human, UniProt Q5VWK5 24-629)
T1 sequence (looked up): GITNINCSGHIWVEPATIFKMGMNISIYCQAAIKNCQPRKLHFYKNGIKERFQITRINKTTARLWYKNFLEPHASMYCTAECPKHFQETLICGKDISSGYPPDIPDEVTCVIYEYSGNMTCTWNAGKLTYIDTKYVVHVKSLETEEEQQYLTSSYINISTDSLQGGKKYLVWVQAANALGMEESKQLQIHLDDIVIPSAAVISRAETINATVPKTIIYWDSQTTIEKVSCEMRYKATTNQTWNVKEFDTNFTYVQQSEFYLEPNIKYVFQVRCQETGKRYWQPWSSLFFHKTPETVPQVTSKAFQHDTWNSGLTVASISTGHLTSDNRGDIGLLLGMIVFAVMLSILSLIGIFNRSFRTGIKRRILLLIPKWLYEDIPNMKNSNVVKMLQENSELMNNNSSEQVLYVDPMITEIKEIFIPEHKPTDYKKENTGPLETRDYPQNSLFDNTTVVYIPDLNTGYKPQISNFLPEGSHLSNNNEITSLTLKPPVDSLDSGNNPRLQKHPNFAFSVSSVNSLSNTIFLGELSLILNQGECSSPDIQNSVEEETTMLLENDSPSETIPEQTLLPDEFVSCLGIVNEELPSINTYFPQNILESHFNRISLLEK


Tests used:
[1] = biological target: T1, human IL-23R (interleukin-23 receptor); assay: cell-based or functional assay
[2] = biological target: T1, human IL-23R (interleukin-23 receptor); assay: cell-based or functional assay; remark: listed apart in the source

| pStat3 HTRF (nM), IC50, DB cells IL23R pSTAT3 cell assay [1] | NK Cell Assay (nM), IC50, IFN-gamma after IL-23 and IL-18 [2] | PBMC pSTAT3 IC50 (nM) [1] | Binder |
| --- | --- | --- | --- |
| 0.602 nM | 2.89 nM |  | Ac-[Pen]NT[Trp(7-Me)]K(Ac)[Pen][AEF][3Quin][αMeK]K(Ac)N[dL]-NH2 (disulfide 1-6; reading uncertain; also: printed as Ac-[Pen]-N-T-[W(7-Me)]-[Lys(Ac)]-[Pen]-Phe[4-(2-aminoethoxy)]-[3-Quin]-[a-MeLys]-[Lys(Ac)]-N-[(D)Leu)]-NH2) [Compound No. 1] |
| 1.29 nM | 6.51 nM |  | Ac-[dR][Pen]NT[Trp(7-Me)]K(Ac)[Pen][AEF][2Nal][Thp]K(Ac)N[αMeF]-NH2 (disulfide 2-7; SMILES CC(=O)NCCCC[C@@H]1NC(=O)[C@H](Cc2c[nH]c3c(C)cccc23)NC(=O)[C@H]([C@@H](C)O)NC(=O)[C@H](CC(N)=O)NC(=O)[C@@H](NC(=O)[C@@H](CCCNC(=N)N)NC(C)=O)C(C)(C)SSC(C)(C)[C@@H](C(=O)N[C@@H](Cc2ccc(OCCN)cc2)C(=O)N[C@@H](Cc2ccc3ccccc3c2)C(=O)NC2(C(=O)N[C@@H](CCCCNC(C)=O)C(=O)N[C@@H](CC(N)=O)C(=O)N[C@@](C)(Cc3ccccc3)C(N)=O)CCOCC2)NC1=O) [Compound No. 111] |
|  |  | 4.1 nM | Ac-[dR][Pen]NT[Trp(7-Me)]Q[Pen][AEF][2Nal][Thp]EN[αMeF]-NH2 (disulfide 2-7; SMILES CC(=O)N[C@H](CCCNC(=N)N)C(=O)N[C@@H]1C(=O)N[C@@H](CC(N)=O)C(=O)N[C@@H]([C@@H](C)O)C(=O)N[C@@H](Cc2c[nH]c3c(C)cccc23)C(=O)N[C@@H](CCC(N)=O)C(=O)N[C@H](C(=O)N[C@@H](Cc2ccc(OCCN)cc2)C(=O)N[C@@H](Cc2ccc3ccccc3c2)C(=O)NC2(C(=O)N[C@@H](CCC(=O)O)C(=O)N[C@@H](CC(N)=O)C(=O)N[C@@](C)(Cc3ccccc3)C(N)=O)CCOCC2)C(C)(C)SSC1(C)C) [Compound No. 91] |
| 2.31 nM | 20.1 nM | 40 nM | Propionyl-[dR][Pen]QTWQ[Pen][AEF][2Nal][Thp]EN[αMeF]-NH2 (disulfide 2-7; SMILES CCC(=O)N[C@H](CCCNC(=N)N)C(=O)N[C@@H]1C(=O)N[C@@H](CCC(N)=O)C(=O)N[C@@H]([C@@H](C)O)C(=O)N[C@@H](Cc2c[nH]c3ccccc23)C(=O)N[C@@H](CCC(N)=O)C(=O)N[C@H](C(=O)N[C@@H](Cc2ccc(OCCN)cc2)C(=O)N[C@@H](Cc2ccc3ccccc3c2)C(=O)NC2(C(=O)N[C@@H](CCC(=O)O)C(=O)N[C@@H](CC(N)=O)C(=O)N[C@@](C)(Cc3ccccc3)C(N)=O)CCOCC2)C(C)(C)SSC1(C)C) [Compound No. 3] |
|  |  | 4.6 nM | Ac-[dR][Pen]NT[Trp(7-Me)]Q[Pen][AEF][2Nal][Ac5c]EN[αMeF]-NH2 (disulfide 2-7; SMILES CC(=O)N[C@H](CCCNC(=N)N)C(=O)N[C@@H]1C(=O)N[C@@H](CC(N)=O)C(=O)N[C@@H]([C@@H](C)O)C(=O)N[C@@H](Cc2c[nH]c3c(C)cccc23)C(=O)N[C@@H](CCC(N)=O)C(=O)N[C@H](C(=O)N[C@@H](Cc2ccc(OCCN)cc2)C(=O)N[C@@H](Cc2ccc3ccccc3c2)C(=O)NC2(C(=O)N[C@@H](CCC(=O)O)C(=O)N[C@@H](CC(N)=O)C(=O)N[C@@](C)(Cc3ccccc3)C(N)=O)CCCC2)C(C)(C)SSC1(C)C) [Compound No. 93] |
|  |  | 12 nM | Ac-[dR][Pen]NT[Trp(7-Me)]K(Ac)[Pen][AEF][2Nal][Ac5c]EN[αMeF]-NH2 (disulfide 2-7; SMILES CC(=O)NCCCC[C@@H]1NC(=O)[C@H](Cc2c[nH]c3c(C)cccc23)NC(=O)[C@H]([C@@H](C)O)NC(=O)[C@H](CC(N)=O)NC(=O)[C@@H](NC(=O)[C@@H](CCCNC(=N)N)NC(C)=O)C(C)(C)SSC(C)(C)[C@@H](C(=O)N[C@@H](Cc2ccc(OCCN)cc2)C(=O)N[C@@H](Cc2ccc3ccccc3c2)C(=O)NC2(C(=O)N[C@@H](CCC(=O)O)C(=O)N[C@@H](CC(N)=O)C(=O)N[C@@](C)(Cc3ccccc3)C(N)=O)CCCC2)NC1=O) [Compound No. 94] |
| 4.16 nM | 8.29 nM | 4.6 nM | Propionyl-[dR][Pen]QTWQ[Pen][AEF][2Nal][Thp]EN[Thp]-NH2 (disulfide 2-7; SMILES CCC(=O)N[C@H](CCCNC(=N)N)C(=O)N[C@@H]1C(=O)N[C@@H](CCC(N)=O)C(=O)N[C@@H]([C@@H](C)O)C(=O)N[C@@H](Cc2c[nH]c3ccccc23)C(=O)N[C@@H](CCC(N)=O)C(=O)N[C@H](C(=O)N[C@@H](Cc2ccc(OCCN)cc2)C(=O)N[C@@H](Cc2ccc3ccccc3c2)C(=O)NC2(C(=O)N[C@@H](CCC(=O)O)C(=O)N[C@@H](CC(N)=O)C(=O)NC3(C(N)=O)CCOCC3)CCOCC2)C(C)(C)SSC1(C)C) [Compound No. 10] |
| 3.12 nM | 11.6 nM | 29 nM | [dR][Pen]QTWQ[Pen][AEF][2Nal][Thp]EN[Thp]-NH2 (disulfide 2-7; not fully specified (N-terminus)) [Compound No. 9] |
| 2.46 nM | 16.8 nM | 8.6 nM | Propionyl-[dR][Pen]QTWQ[Pen][AEF][2Nal][Thp]K(Tfa)N[Thp]-NH2 (disulfide 2-7; SMILES CCC(=O)N[C@H](CCCNC(=N)N)C(=O)N[C@@H]1C(=O)N[C@@H](CCC(N)=O)C(=O)N[C@@H]([C@@H](C)O)C(=O)N[C@@H](Cc2c[nH]c3ccccc23)C(=O)N[C@@H](CCC(N)=O)C(=O)N[C@H](C(=O)N[C@@H](Cc2ccc(OCCN)cc2)C(=O)N[C@@H](Cc2ccc3ccccc3c2)C(=O)NC2(C(=O)N[C@@H](CCCCNC(=O)C(F)(F)F)C(=O)N[C@@H](CC(N)=O)C(=O)NC3(C(N)=O)CCOCC3)CCOCC2)C(C)(C)SSC1(C)C) [Compound No. 6] |
| 24.6 nM | 72.3 nM |  | Propionyl-[dR][Pen]QTWQ[Pen][AEF][2Nal][Thp]EN[NMeβAla]-NH2 (disulfide 2-7; SMILES CCC(=O)N[C@H](CCCNC(=N)N)C(=O)N[C@@H]1C(=O)N[C@@H](CCC(N)=O)C(=O)N[C@@H]([C@@H](C)O)C(=O)N[C@@H](Cc2c[nH]c3ccccc23)C(=O)N[C@@H](CCC(N)=O)C(=O)N[C@H](C(=O)N[C@@H](Cc2ccc(OCCN)cc2)C(=O)N[C@@H](Cc2ccc3ccccc3c2)C(=O)NC2(C(=O)N[C@@H](CCC(=O)O)C(=O)N[C@@H](CC(N)=O)C(=O)N(C)CCC(N)=O)CCOCC2)C(C)(C)SSC1(C)C) [Compound No. 8] |
| 3.87 nM | 12.6 nM | 8.6 nM | Propionyl-[dR][Pen]QTWQ[Pen][AEF][2Nal][Thp]K(Piv)N[Thp]-NH2 (disulfide 2-7; SMILES CCC(=O)N[C@H](CCCNC(=N)N)C(=O)N[C@@H]1C(=O)N[C@@H](CCC(N)=O)C(=O)N[C@@H]([C@@H](C)O)C(=O)N[C@@H](Cc2c[nH]c3ccccc23)C(=O)N[C@@H](CCC(N)=O)C(=O)N[C@H](C(=O)N[C@@H](Cc2ccc(OCCN)cc2)C(=O)N[C@@H](Cc2ccc3ccccc3c2)C(=O)NC2(C(=O)N[C@@H](CCCCNC(=O)C(C)(C)C)C(=O)N[C@@H](CC(N)=O)C(=O)NC3(C(N)=O)CCOCC3)CCOCC2)C(C)(C)SSC1(C)C) [Compound No. 7] |
|  |  | 31 nM | Ac-[dR][Pen]QTWQ[Pen][AEF][2Nal][Thp]EN[αMeF]-NH2 (disulfide 2-7; SMILES CC(=O)N[C@H](CCCNC(=N)N)C(=O)N[C@@H]1C(=O)N[C@@H](CCC(N)=O)C(=O)N[C@@H]([C@@H](C)O)C(=O)N[C@@H](Cc2c[nH]c3ccccc23)C(=O)N[C@@H](CCC(N)=O)C(=O)N[C@H](C(=O)N[C@@H](Cc2ccc(OCCN)cc2)C(=O)N[C@@H](Cc2ccc3ccccc3c2)C(=O)NC2(C(=O)N[C@@H](CCC(=O)O)C(=O)N[C@@H](CC(N)=O)C(=O)N[C@@](C)(Cc3ccccc3)C(N)=O)CCOCC2)C(C)(C)SSC1(C)C) [Compound No. 97] |
|  |  | 22 nM | Ac-[Pen]NTWK(Ac)[Pen][AEF][2Nal][αMeK]K(Ac)N[Thp]-NH2 (disulfide 1-6; SMILES CC(=O)NCCCC[C@@H]1NC(=O)[C@H](Cc2c[nH]c3ccccc23)NC(=O)[C@H]([C@@H](C)O)NC(=O)[C@H](CC(N)=O)NC(=O)[C@@H](NC(C)=O)C(C)(C)SSC(C)(C)[C@@H](C(=O)N[C@@H](Cc2ccc(OCCN)cc2)C(=O)N[C@@H](Cc2ccc3ccccc3c2)C(=O)N[C@@](C)(CCCCN)C(=O)N[C@@H](CCCCNC(C)=O)C(=O)N[C@@H](CC(N)=O)C(=O)NC2(C(N)=O)CCOCC2)NC1=O) [Compound No. 95] |

Source: patent publication US20220402983A1 (Janssen / Centocor, published 2022)
